The values that follow come from US7094554.

Experiment [1] concerns the target P. gossypiella (pink bollworm) midgut brush border membrane vesicle (BBMV) proteins (Pectinophora gossypiella). In words: homologous competition assay, 125I-toxin on BBMV.
The target is the same in experiment [2]. In words: competition with 125I-Cry1Ac on BBMV, 1000 nM unlabeled toxin.
Experiment [3] shares this target. In words: homologous competition, 125I-Cry1Aa against unlabeled Cry1Aa on BBMV.
Experiment [4] has the same target. The experiment in a line: saturation binding, fixed 125I-toxin with increasing BBMV.
For experiment [5] the target is unchanged. In words: competition with 125I-Cry1Ac on BBMV.
The target is the same in experiment [6]. In words: homologous competition, 125I-Cry1Ab against unlabeled Cry1Ab on BBMV.
For experiment [7] the target is unchanged. The experiment in a line: homologous competition, 125I-Cry1Ac against unlabeled Cry1Ac on BBMV.

Regarding “Cry1Aa toxin (trypsinized 60 kD toxin) (from UniProt P0A366 29-619) (ligand)”, in experiment [1], the Kd stood at 16.5 nM and the concentration of binding sites (Bmax) worked out at 3.7 pmol/mg. Also, in experiment [2], the percent reduction of 125I-Cry1Ac binding at 1000 nM amounted to 80%. Moreover, the IC50 in experiment [3] is 10 nM. This substance also registered a maximum saturable binding at 400 µg/ml of BBMV in experiment [4] of 0.35 ng. Besides, the 50% inhibitory concentration (IC50) in experiment [5] came out at 100 nM.
Take “Cry1Ab toxin (trypsinized 60 kD toxin) (from UniProt P0A370 29-620) (ligand)”: the half-maximal inhibitory concentration (IC50) in experiment [6] is 10 nM; in experiment [5], 100 nM. In experiment [1], this substance came in with a Kd of 12.4 nM. In experiment [1], the concentration of binding sites (Bmax) came to 3.6 pmol/mg. The percent reduction of 125I-Cry1Ac binding at 1000 nM in experiment [2] stood at 82%. Further, the maximum saturable binding at 400 µg/ml of BBMV in experiment [4] was found to be 0.05 ng.
In experiment [1], “Cry1Ac toxin (trypsinized 60 kD toxin) (from UniProt P05068 29-623) (ligand)” yielded a dissociation constant (Kd) of 12.8 nM and a concentration of binding sites (Bmax) of 8.6 pmol/mg. Further, in experiment [7], the concentration for half-maximal inhibition (IC50) worked out at 10 nM. In addition, the percent reduction of 125I-Cry1Ac binding at 1000 nM in experiment [2] was 95%. Also, in experiment [4], the fold difference in binding compared to Cry1Ab stood at 30 fold, the fold higher binding compared to Cry1Aa is 4 fold and the maximum saturable binding at 400 µg/ml of BBMV worked out at 1.5 ng. This substance showed a 50% inhibitory concentration (IC50) in experiment [5] of 10 nM.
